Experiments:
[1] = molecular target: T1, GST-Pum (Pumilio RNA-binding domain) (Drosophila, UniProt P25822 1091-1533); test: EMSA; details: 5:1 protein:RNA, 10 mM Hepes/KOH pH 7.4, 50 mM KCl, 3 mM MgCl2, 1 mM EDTA, 2 mM DTT, 0.1 mg/ml BSA, 0.1 mg/ml yeast tRNA, 0.01% Tween-20, 0.2 U RNasin, 10% glycerol, 10 ul …
T1 sequence: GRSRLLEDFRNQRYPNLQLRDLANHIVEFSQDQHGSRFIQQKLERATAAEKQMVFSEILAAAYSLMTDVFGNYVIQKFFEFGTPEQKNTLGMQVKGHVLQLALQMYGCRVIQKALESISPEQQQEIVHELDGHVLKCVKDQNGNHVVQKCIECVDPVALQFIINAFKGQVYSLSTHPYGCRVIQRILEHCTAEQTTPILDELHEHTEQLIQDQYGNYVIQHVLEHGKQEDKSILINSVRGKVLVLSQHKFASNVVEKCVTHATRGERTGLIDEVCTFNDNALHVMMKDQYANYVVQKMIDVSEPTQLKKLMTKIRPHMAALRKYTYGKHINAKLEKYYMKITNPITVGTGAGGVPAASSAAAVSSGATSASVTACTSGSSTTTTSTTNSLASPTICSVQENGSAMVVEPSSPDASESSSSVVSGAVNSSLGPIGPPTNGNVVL

[2] = molecular target: T2, GST-Pum (Pumilio RNA-binding domain) (Drosophila) (UniProt P25822); test: EMSA; details: 5:1 protein:RNA (50 fmol:10 fmol); one complex; 10 mM Hepes/KOH pH 7.4, 50 mM KCl, 3 mM MgCl2, 1 mM EDTA, 2 mM DTT, 0.1 mg/ml BSA, 0.1 mg/ml yeast tRNA, 0.01% Tween-20, 0.2 U RNasin, 10% glycerol, 10 ul …
T2 sequence: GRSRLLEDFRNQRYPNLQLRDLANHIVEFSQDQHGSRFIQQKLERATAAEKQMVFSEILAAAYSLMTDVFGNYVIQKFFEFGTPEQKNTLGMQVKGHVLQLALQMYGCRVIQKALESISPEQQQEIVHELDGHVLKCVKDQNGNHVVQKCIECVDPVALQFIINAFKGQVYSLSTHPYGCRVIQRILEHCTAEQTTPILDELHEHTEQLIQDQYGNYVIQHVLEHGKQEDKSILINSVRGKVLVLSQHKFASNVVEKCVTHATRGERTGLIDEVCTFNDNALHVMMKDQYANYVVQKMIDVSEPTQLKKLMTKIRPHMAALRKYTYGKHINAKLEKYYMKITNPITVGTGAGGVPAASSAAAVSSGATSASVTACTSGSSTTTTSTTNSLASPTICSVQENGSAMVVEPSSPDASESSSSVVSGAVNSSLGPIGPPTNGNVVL

[3] = molecular target: T1, GST-Pum (Pumilio RNA-binding domain); test: EMSA; up to 50 fmol protein:10 fmol RNA; 10 mM Hepes/KOH pH 7.4, 50 mM KCl, 3 mM MgCl2, 1 mM EDTA, 2 mM DTT, 0.1 mg/ml BSA, 0.1 mg/ml yeast tRNA, 0.01% Tween-20, 0.2 U RNasin, 10% glycerol, 10 ul, 20 min room temperature; 5% native gel in 1x TBE; details: protein: recombinant; tags: N-terminal GST; label: radiolabel

AP-1gamma 3'UTR 85-191 showed a binding signal ([1]; one complex) of 21.8 % bound.

With “AUUAUUUUGUUGUCGAAAAUUGUACAUAAGCC [hb NRE2]” the binding signal [2] was 67.9 % bound.

In the case of Ace 3'UTR 722-1095, the binding signal [1] is reported as 33 % bound.

Csp 3'UTR 1218-1545 gave a binding signal ([1]; 2 sites) of 57.2 % bound.

EP2237 3'UTR 340-514 was tested, and the binding signal [1] was 20.5 % bound.

With Gad1 3'UTR 704-973 the binding signal ([1]; 2 sites) was 35.9 % bound.

Work on dlg1 (isoforms A and D) 3'UTR 1485-1539 yielded a binding signal ([1]; one complex) of 56.9 % bound.

dlg1 isoform C 3'UTR 744-829 gave a binding signal ([1]; not bound even at high molar ratio) of 0 % bound.

With mam 3'UTR 642-1110 the binding signal ([1]; 2 sites) was 73.8 % bound.

shn 3'UTR 809-1013 showed a binding signal ([1]; 2 sites) of 59 % bound.

GGUAGUGCAUACAACUUCCUU (ssRNA) [CRS random control RNA]: no binding [3].
